Laboratory results taken from the supplement of paper PMC10065799, “High-throughput profiling of sequence recognition by tyrosine kinases and SH2 domains using bacterial peptide display” (eLife, 2023).

Assays:
Fyn = Fyn (UniProt P06241); test: phosphorylation enrichment, bacterial display (enrichment ratio); higher = better substrate or ligand; peptides without Tyr show the background
Hck = Hck (UniProt P08631); test: as above
FGFR3 = FGFR3 (UniProt P22607); test: as above
Fer (mouse) = test: as above
EPHB1 = EPHB1 (UniProt P54762); test: as above
FGFR1 = FGFR1 (UniProt P11362); test: as above
EPHB2 = EPHB2 (UniProt P29323); test: as above
Jak2 = Jak2 (UniProt O60674); test: as above
AncSZ = test: as above
c-Abl (mouse) = test: as above
MERTK = MERTK (UniProt Q12866); test: as above
Fes = Fes (UniProt P07332); test: as above
c-Src = test: as above
c-Src SH2 = test: SH2 binding enrichment of the phosphorylated peptide, bacterial display (enrichment ratio); higher = better substrate or ligand; peptides without Tyr show the background
SHP2-C SH2 = test: as above
Grb2 SH2 = Grb2 SH2 (UniProt P62993); test: as above
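For SH2 binding enrichment of the phosphorylated peptide, bacterial display in this document: peptide library displayed on the E. coli surface as eCPX fusions, selected cells deep-sequenced, score is each peptide's frequency after selection divided by its frequency in the input.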
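For phosphorylation enrichment, bacterial display in this document: 11-residue human phosphosite peptides and single-mutation variants displayed on the E. coli surface, counted by deep sequencing, each peptide's frequency after selection divided by its frequency in the unselected input library; frequency after pTyr selection over input frequency; kinase dosed for 20-30% of maximal phosphorylation in three min.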

Chain of FGFR1 (P11362 whole entry, looked up): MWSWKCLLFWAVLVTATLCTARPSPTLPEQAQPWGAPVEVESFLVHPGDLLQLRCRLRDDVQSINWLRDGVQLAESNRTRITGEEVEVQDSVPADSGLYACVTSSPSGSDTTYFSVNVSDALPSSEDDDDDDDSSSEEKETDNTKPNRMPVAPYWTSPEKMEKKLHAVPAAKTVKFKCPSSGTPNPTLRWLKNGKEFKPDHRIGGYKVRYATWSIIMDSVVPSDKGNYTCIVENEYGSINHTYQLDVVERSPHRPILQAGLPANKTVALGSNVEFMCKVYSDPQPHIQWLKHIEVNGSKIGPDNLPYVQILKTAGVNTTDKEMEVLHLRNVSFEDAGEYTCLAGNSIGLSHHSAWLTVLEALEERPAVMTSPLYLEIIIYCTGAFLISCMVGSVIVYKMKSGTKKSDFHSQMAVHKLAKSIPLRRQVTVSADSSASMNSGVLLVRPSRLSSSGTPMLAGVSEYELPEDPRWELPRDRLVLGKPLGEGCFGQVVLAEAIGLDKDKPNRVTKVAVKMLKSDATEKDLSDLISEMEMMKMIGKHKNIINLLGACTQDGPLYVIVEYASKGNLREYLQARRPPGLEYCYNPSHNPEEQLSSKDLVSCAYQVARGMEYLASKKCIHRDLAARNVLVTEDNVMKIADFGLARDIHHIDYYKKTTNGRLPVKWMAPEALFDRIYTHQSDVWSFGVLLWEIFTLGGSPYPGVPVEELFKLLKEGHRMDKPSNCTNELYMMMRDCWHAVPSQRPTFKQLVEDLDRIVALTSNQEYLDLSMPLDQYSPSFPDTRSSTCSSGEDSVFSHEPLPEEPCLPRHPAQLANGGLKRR
Chain of Fyn (P06241 whole entry, looked up): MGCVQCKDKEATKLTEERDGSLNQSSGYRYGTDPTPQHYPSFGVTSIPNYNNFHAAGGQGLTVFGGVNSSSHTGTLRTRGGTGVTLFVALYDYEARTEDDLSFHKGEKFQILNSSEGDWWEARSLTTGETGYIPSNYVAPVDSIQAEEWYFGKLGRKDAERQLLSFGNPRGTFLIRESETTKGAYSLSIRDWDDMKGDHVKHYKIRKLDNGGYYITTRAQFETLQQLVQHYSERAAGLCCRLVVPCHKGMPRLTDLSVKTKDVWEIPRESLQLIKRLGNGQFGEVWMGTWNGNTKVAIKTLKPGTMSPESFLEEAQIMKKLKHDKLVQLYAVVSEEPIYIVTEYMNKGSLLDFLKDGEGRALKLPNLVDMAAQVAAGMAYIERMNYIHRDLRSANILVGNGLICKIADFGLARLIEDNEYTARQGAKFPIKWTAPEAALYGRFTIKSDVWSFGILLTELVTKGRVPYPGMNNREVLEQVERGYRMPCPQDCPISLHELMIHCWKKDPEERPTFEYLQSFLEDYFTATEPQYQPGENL
Chain of Hck (P08631 whole entry, looked up): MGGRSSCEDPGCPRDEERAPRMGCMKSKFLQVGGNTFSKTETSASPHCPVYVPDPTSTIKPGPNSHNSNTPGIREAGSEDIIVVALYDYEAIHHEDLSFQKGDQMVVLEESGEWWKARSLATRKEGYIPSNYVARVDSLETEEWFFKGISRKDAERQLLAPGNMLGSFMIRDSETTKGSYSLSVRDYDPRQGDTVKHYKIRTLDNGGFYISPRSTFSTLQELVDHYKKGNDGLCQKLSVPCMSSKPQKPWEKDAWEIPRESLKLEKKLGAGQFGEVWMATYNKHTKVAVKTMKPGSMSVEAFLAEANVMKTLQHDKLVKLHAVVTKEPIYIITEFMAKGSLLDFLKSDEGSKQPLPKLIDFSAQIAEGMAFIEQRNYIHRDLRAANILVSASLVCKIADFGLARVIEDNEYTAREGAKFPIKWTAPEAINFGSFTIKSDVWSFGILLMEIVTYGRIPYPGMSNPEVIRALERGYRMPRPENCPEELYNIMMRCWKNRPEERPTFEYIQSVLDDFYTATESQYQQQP
Chain of EPHB1 (P54762 whole entry, looked up): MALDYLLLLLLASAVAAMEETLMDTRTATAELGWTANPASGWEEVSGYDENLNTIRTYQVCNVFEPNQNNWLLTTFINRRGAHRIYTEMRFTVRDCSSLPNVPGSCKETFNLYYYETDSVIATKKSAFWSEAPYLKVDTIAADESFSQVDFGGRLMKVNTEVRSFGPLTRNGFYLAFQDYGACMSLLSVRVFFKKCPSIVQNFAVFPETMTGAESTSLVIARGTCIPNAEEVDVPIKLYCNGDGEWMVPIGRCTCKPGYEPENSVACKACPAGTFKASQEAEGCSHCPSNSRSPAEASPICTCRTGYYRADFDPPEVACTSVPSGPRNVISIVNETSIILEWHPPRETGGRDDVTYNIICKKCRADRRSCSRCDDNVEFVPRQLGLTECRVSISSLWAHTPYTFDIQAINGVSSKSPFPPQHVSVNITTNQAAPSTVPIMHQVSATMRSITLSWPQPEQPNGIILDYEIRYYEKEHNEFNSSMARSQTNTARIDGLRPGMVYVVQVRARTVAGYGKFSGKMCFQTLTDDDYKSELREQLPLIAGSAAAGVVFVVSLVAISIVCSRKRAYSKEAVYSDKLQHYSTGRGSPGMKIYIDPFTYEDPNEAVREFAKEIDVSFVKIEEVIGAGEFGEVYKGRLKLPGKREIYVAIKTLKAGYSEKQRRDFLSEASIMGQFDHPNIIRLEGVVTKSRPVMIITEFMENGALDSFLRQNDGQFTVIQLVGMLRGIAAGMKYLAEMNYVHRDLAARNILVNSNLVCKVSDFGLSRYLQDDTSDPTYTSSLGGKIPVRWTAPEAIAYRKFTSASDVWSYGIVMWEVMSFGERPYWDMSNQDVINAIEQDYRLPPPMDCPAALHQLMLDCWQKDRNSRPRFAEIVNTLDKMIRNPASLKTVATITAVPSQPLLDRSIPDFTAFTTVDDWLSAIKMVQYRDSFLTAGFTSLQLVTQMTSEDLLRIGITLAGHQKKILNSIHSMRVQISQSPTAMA
Chain of MERTK (Q12866 whole entry, looked up): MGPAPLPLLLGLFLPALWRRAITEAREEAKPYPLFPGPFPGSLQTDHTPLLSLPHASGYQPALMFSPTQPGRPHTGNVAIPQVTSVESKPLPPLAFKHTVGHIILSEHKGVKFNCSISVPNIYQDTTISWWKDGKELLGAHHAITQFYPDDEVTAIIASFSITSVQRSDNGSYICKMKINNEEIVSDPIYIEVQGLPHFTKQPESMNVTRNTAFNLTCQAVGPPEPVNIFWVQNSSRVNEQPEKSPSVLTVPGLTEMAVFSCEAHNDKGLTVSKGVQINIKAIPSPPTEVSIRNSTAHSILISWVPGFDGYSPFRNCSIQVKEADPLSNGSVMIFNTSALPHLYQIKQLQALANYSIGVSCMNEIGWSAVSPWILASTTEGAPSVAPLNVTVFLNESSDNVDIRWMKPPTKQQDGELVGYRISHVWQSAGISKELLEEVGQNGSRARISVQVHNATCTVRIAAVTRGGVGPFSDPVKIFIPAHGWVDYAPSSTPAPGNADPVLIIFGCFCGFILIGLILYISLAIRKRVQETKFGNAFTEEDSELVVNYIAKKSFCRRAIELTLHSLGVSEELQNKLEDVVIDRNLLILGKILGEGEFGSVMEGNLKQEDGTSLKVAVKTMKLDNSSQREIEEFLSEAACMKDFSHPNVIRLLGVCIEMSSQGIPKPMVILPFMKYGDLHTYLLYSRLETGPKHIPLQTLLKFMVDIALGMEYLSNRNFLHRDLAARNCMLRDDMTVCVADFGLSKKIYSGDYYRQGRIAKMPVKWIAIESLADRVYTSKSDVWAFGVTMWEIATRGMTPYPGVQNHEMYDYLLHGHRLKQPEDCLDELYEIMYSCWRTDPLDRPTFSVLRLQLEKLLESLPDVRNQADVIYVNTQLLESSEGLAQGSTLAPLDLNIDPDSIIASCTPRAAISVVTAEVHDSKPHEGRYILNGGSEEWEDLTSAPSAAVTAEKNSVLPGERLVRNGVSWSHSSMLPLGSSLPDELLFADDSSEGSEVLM
Chain of EPHB2 (P29323 whole entry, looked up): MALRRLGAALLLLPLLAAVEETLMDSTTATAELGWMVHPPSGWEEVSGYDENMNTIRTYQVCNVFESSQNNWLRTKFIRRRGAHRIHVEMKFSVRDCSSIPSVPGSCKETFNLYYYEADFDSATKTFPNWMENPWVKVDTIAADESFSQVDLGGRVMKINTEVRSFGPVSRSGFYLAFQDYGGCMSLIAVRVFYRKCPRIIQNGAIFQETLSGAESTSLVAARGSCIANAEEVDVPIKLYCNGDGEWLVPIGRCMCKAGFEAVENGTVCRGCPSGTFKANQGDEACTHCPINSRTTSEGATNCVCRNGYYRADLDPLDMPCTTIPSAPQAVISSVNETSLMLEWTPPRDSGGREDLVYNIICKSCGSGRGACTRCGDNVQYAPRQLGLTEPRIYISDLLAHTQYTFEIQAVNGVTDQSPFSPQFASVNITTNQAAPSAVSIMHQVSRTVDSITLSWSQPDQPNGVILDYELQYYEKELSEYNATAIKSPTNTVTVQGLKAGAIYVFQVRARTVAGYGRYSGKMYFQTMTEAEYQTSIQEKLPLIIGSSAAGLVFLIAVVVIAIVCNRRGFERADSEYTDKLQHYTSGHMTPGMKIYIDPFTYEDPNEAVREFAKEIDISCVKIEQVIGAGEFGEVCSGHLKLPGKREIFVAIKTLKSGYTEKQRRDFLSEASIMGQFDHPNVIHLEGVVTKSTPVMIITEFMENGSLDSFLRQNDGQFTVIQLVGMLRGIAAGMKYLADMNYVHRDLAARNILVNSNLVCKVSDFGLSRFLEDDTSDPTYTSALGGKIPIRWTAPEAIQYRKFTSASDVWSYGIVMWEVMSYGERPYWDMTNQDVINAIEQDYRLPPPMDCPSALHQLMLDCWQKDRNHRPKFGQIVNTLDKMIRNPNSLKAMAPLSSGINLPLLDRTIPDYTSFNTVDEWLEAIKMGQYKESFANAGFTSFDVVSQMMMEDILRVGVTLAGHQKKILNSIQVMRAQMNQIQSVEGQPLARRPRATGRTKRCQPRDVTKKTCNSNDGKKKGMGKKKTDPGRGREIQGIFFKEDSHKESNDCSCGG

Row | Sequence | SH2 binding enrichment (c-Src SH2) | SH2 binding enrichment (SHP2-C SH2) | SH2 binding enrichment (Grb2 SH2) | phosphorylation enrichment (Fyn) | phosphorylation enrichment (Hck) | phosphorylation enrichment (FGFR3) | phosphorylation enrichment (Fer (mouse)) | phosphorylation enrichment (EPHB1) | phosphorylation enrichment (FGFR1) | phosphorylation enrichment (EPHB2) | phosphorylation enrichment (Jak2) | phosphorylation enrichment (AncSZ) | phosphorylation enrichment (c-Abl (mouse)) | phosphorylation enrichment (MERTK) | phosphorylation enrichment (Fes) | phosphorylation enrichment (c-Src)
1 | AALVQYFMEHH [PTPN11_Y80_E76A_YF] | 0.946 | 1.42 | 1.34 | 0.439 | 0.519 | 0.727 | 0.476 | 0.623 | 0.573 | 0.541 | 0.772 | 0.798 | 0.665 | 0.401 | 1.05 | 0.441
2 | AAVLNYKAWRD [GRIN2A_Y737_G740W] | 0.481 | 0.915 | 1.35 | 0.35 | 0.436 | 0.462 | 0.338 | 0.408 | 0.534 | 0.276 | 0.646 | 0.839 | 0.808 | 0.386 | 0.656 | 0.396
3 | ADCRFYTFPQM [GAMT_Y223_A224T_YF] | 0.513 | 0.717 | 1.25 | 0.811 | 0.534 | 0.895 | 1.99 | 1.07 | 0.584 | 0.813 | 1.2 | 1.88 | 0.784 | 5.08 | 1.48 | 1.24
4 | ADKSAYLMGVN [MYH7_Y386_L390V] | 0.32 | 0.594 | 0.786 | 0.405 | 0.401 | 0.466 | 0.396 | 0.418 | 0.399 | 0.466 | 0.58 | 0.574 | 0.572 | 0.338 | 0.661 | 0.41
5 | ADRLEYSRTGL [MMUT_Y287_G284R] | 0.517 | 1.14 | 0.859 | 0.408 | 0.346 | 0.651 | 0.338 | 0.309 | 0.764 | 0.722 | 1.25 | 0.66 | 0.498 | 0.728 | 0.599 | 0.459
6 | ADSLRYIFPKL [EIF2B3_Y92_YF] | 0.667 | 1.41 | 0.966 | 0.474 | 0.413 | 0.497 | 0.31 | 0.43 | 0.398 | 0.381 | 0.64 | 0.552 | 0.566 | 0.459 | 0.681 | 0.457
7 | AEEPIYIIVPA [BMXtide_2014] | 0.83 | 0.956 | 1.05 | 10.1 | 7.96 | 12.1 | 11.1 | 18.5 | 13.9 | 24.2 | 2.47 | 4.75 | 8.02 | 9.02 | 2.98 | 8.8
8 | AELVRYFMEHH [PTPN11_Y80_Q79R_YF] | 0.625 | 0.632 | 0.807 | 0.414 | 0.46 | 0.471 | 0.427 | 0.458 | 0.454 | 0.526 | 0.621 | 0.653 | 0.493 | 0.421 | 0.883 | 0.433
9 | AESPEHVHMFT [FAM111A_Y511_Y511H_YF] | 0.421 | 0.54 | 0.786 | 0.446 | 0.447 | 0.614 | 0.431 | 0.566 | 0.433 | 0.569 | 0.754 | 0.746 | 0.661 | 0.416 | 1.01 | 0.36
10 | AFDNLYFWDQD [ERBB2_Y1221_YF] | 0.495 | 0.59 | 0.865 | 5.76 | 4.26 | 6.95 | 1.68 | 1.42 | 6.87 | 1.25 | 1.56 | 2.1 | 0.981 | 5.13 | 1.93 | 5.12
11 | AFEQQYSPIPK [NOX1_Y373_R378K] | 0.74 | 0.569 | 0.856 | 0.514 | 3.14 | 0.575 | 0.435 | 0.766 | 0.744 | 0.411 | 0.534 | 0.772 | 0.612 | 0.874 | 0.741 | 0.802
12 | AGLEEYSAMRD [HRAS_Y64_Q61L] | 0.572 | 0.693 | 0.821 | 0.45 | 0.523 | 0.666 | 0.495 | 0.568 | 0.52 | 0.585 | 0.837 | 0.952 | 0.636 | 0.429 | 0.997 | 0.484
13 | AGVDRYSLGTS [C5orf42_Y1451_P1446A] | 0.45 | 0.615 | 0.79 | 0.361 | 0.455 | 0.51 | 0.398 | 0.463 | 0.398 | 0.366 | 0.498 | 0.59 | 0.388 | 0.394 | 0.599 | 0.391
14 | AHLLQYNHRVK [LGALS3_Y221] | 0.874 | 1.13 | 1.03 | 0.288 | 0.366 | 0.442 | 0.371 | 0.461 | 0.397 | 0.493 | 0.562 | 0.592 | 0.668 | 0.42 | 0.604 | 0.459
15 | AKGMKYLASKK [MET_Y1194] | 0.553 | 0.557 | 0.975 | 0.354 | 0.394 | 0.311 | 0.379 | 0.244 | 0.341 | 0.324 | 0.489 | 0.482 | 0.445 | 0.335 | 0.536 | 0.406
16 | AKGMKYVASKK [MET_Y1194_L1195V] | 0.78 | 0.763 | 0.969 | 0.339 | 0.425 | 0.356 | 0.322 | 0.301 | 0.415 | 0.276 | 0.5 | 0.451 | 0.451 | 0.349 | 0.548 | 0.381
17 | AKIDGYITSYR | 0.501 | 0.739 | 0.815 | 0.433 | 0.407 | 0.556 | 0.338 | 0.52 | 0.469 | 0.51 | 0.558 | 0.809 | 0.565 | 0.415 | 0.763 | 0.417
18 | ALAAPYVLYPS [CEFIP_Y1332_G1337S] | 0.762 | 0.804 | 1.03 | 0.697 | 0.628 | 1.28 | 0.581 | 0.652 | 2.02 | 0.473 | 0.856 | 0.786 | 0.583 | 0.721 | 0.811 | 6.33
19 | ALAHKYQGGGG [HBB_Y146_H147Q] | 0.415 | 0.546 | 0.691 | 0.451 | 0.375 | 0.476 | 0.283 | 0.204 | 0.476 | 0.436 | 0.527 | 0.824 | 0.565 | 0.588 | 0.58 | 0.491
20 | ALKWGYTVKGI [OAT_Y158_R154L] | 0.625 | 0.845 | 0.872 | 0.519 | 0.341 | 0.72 | 0.445 | 0.447 | 0.426 | 0.547 | 1.01 | 1.13 | 0.659 | 0.304 | 1.24 | 0.31
21 | ANVKWYRSGRE | 0.368 | 0.46 | 0.739 | 0.43 | 0.412 | 0.886 | 0.402 | 0.401 | 0.46 | 0.425 | 0.585 | 0.875 | 0.587 | 0.474 | 0.841 | 0.512
22 | APQYTYTQGGQ [FLNA_Y1763_A1764T] | 1.84 | 0.799 | 1.54 |  |  |  |  |  |  |  |  |  |  |  |  | 
23 | LPEVSYVKAID [GLRA1_Y307_K304E] | 0.437 | 0.783 | 0.862 | 0.28 | 0.203 | 0.1 |  | 0.095 |  |  | 0.44 | 0.207 | 0.132 | 0.07 | 0.205 | 0.126

Continued, in another order:

Row | SH2 binding enrichment (c-Src SH2) | SH2 binding enrichment (SHP2-C SH2) | SH2 binding enrichment (Grb2 SH2) | Sequence | phosphorylation enrichment (Fyn) | phosphorylation enrichment (Hck) | phosphorylation enrichment (FGFR3) | phosphorylation enrichment (Fer (mouse)) | phosphorylation enrichment (EPHB1) | phosphorylation enrichment (FGFR1) | phosphorylation enrichment (EPHB2) | phosphorylation enrichment (Jak2) | phosphorylation enrichment (AncSZ) | phosphorylation enrichment (c-Abl (mouse)) | phosphorylation enrichment (MERTK) | phosphorylation enrichment (Fes) | phosphorylation enrichment (c-Src)
24 | 7 | 0.617 | 0.832 | AADGRYEVLFL [SEMA3F_Y478] | 0.447 | 0.792 | 0.822 | 2.97 | 0.731 | 0.62 | 0.683 | 1.02 | 1.07 | 0.624 | 0.749 | 1.01 | 0.489
25 | 0.419 | 0.696 | 0.62 | AEYGLYGAMVW [VSX2_Y222_R227W] | 6.22 | 5.32 | 0.86 | 4.58 | 1.33 | 0.521 | 4 | 1.25 | 1.45 | 1.1 | 2.66 | 1.37 | 4.49
26 | 0.553 | 1.07 | 0.947 | AFLEDYFTSTK [SRC_Y522_E527K] | 0.474 | 0.52 | 0.774 | 0.356 | 0.378 | 0.639 | 0.492 | 1.26 | 1.1 | 0.591 | 0.504 | 0.97 | 0.463
27 | 0.658 | 1.01 | 0.922 | AFLGEYIPTVF [RAC2_Y32_P29L] | 0.593 | 0.516 | 0.967 | 0.568 | 0.733 | 0.826 | 0.499 | 1.49 | 1.31 | 1.1 | 0.638 | 1.43 | 0.664
28 | 0.489 | 0.641 | 0.849 | AGGTRYRFVSQ [UCN3_Y95_R91G_YF] | 0.536 | 0.338 | 0.377 | 0.386 | 0.397 | 0.461 | 0.272 | 0.465 | 0.426 | 0.576 | 0.363 | 0.43 | 0.393
29 | 0.923 | 0.86 | 0.632 | AIGFEYSEINI [SIGLEC12_Y588_YF] | 0.642 | 1.14 | 1.69 | 3.84 | 0.481 | 2.77 | 0.5 | 1.22 | 1.14 | 0.689 | 0.574 | 1.04 | 1.46
30 | 0.45 | 0.732 | 0.871 | AKLDIYKRKVE [VWA3B_Y918_N916D] | 0.485 | 0.414 | 0.382 | 0.317 | 0.295 | 0.298 | 0.283 | 0.475 | 0.589 | 0.411 | 0.291 | 0.707 | 0.37
31 | 0.517 | 0.664 | 0.854 | AKLNIYKRKVE [VWA3B_Y918] | 0.53 | 0.307 | 0.422 | 0.34 | 0.309 | 0.331 | 0.305 | 0.603 | 0.486 | 0.91 | 0.448 | 0.504 | 0.4
32 | 0.633 | 0.969 | 0.803 | ALLVFYAATIA [SLC20A2_Y187_P184L] | 0.44 | 0.513 | 0.672 | 0.501 | 0.648 | 0.445 | 0.565 | 1.04 | 0.934 | 0.871 | 0.429 | 1.13 | 0.455
33 | 0.806 | 1.17 | 1.16 | AMIADYMFWLG [SPATA16_Y290] | 0.727 | 1.49 | 10.8 | 2.01 | 7.43 | 12.2 | 15.2 | 3.71 | 2.24 | 1.24 | 2.52 | 1.31 | 1.3
34 | 0.64 | 0.673 | 1.09 | ANVIRYFPTQA [SLC25A4_Y81] | 0.585 | 0.558 | 0.492 | 0.547 | 0.42 | 0.524 | 0.502 | 0.61 | 0.78 | 0.541 | 0.546 | 0.648 | 0.674
